In assay [1] the target is T1, B7-H3 on B7-H3-expressing cancer cells (UniProt Q5ZPR3 29-534, limits assumed).
T1 construct: whole, on cells; Endogenous expression on tumour cell lines; also called B7-H3 expressing cells; CD276
T1 sequence (looked up): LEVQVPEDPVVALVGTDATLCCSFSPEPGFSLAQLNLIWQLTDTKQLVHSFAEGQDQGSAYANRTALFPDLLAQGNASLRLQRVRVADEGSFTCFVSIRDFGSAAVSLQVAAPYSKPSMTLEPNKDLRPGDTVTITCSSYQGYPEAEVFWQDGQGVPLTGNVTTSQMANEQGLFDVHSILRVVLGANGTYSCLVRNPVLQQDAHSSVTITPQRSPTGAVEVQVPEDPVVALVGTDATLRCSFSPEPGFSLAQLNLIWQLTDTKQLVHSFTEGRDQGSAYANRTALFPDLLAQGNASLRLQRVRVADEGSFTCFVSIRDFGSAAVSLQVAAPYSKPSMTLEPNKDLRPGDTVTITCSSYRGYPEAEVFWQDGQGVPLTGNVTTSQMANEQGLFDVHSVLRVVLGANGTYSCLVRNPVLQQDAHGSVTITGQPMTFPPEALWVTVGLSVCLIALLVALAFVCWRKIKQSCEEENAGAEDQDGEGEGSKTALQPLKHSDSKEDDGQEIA
The experiment in a line: FACS on U87 (glioma) cells. On the procedure: (§1) Screening for B7-H3-expressing cells were performed using FACS with 27B4H4L3 antibody and MFI of 27B4H4L3 to those cells shown in Table 2. FACS assay was also used to exam and compare the binding capabilities of the 27B4H4L3 antibody, BH73 antibody, 27B4H4L3-MMAE and BH73-Eribulin to B7-H3-expressing cells. To perform the assay, target cells and samples were incubated at 4° C. for 1 h. After wash, samples and secondary antibody (goat pAb to human IgG (FITC) (Abcam, ab97224)) were incubated. FACS was performed on […] (BD, Accuri C6 Plus) and mean fluorescence intensity (MFI) was reported. Three cell lines (U87MG, BT-474 and HT-29) representing B7-H3 high- and low-expressing cells were used to compare binding capacities of different antibody constructs and ADCs.

Assay [2] addresses T1, B7-H3 on B7-H3-expressing cancer cells. The experiment in a line: FACS on HT-29 (colon) cells. On the procedure:
as §1

For assay [3] the target is unchanged. The experiment in a line: FACS on BT-474 (breast) cells. On the procedure: as §1

B1: 27B4H4L3 antibody (antibody, human IgG1, kappa)
heavy: EVQLVQSGAEVKKPGESLKISCKASGYTFTTYWIGWVRQMPGKGLEWMGIIYPGDGGSRYSPSFQGQVTISADKSISTAYLQWSSLKASDTAMYYCARGGNYISFPMYYWGQGTLVTVSSASTKGPSVFPLAPSSKSTSGGTAALGCLVKDYFPEPVTVSWNSGALTSGVHTFPAVLQSSGLYSLSSVVTVPSSSLGTQTYICNVNHKPSNTKVDKRVEPKSCDKTHTCPPCPAPELVGGPSVFLLPPKPKDTLMISRTPEVTCVVVDVSHEDPEVKFNWYVDGVEVHNAKTKPPEEQYNSTLRVVSVLTVLHQDWLNGKEYKCKVSNKALPAPIEKTISKAKGQPREPQVYTLPPSREEMTKNQVSLTCLVKGFYPSDIAVEWESNGQPENNYKTTPLVLDSDGSFFLYSKLTVDKSRWQQGNVFSCSVMHEALHNHYTQKSLSLSPGK
light: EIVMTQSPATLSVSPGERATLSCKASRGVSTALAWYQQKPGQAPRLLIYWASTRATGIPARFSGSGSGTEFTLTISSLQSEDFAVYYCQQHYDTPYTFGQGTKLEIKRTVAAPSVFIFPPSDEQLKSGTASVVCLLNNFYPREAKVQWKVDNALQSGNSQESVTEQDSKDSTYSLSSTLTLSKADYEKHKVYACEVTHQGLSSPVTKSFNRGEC
notes: also called 27B4H43L3
For B1, the MFI in assay [1] is 314000 MFI; in assay [2], 69500 MFI; in assay [3] it was 126000 MFI.

B2: 27B4H4L3-MMAE (antibody, human IgG1, kappa)
heavy: EVQLVQSGAEVKKPGESLKISCKASGYTFTTYWIGWVRQMPGKGLEWMGIIYPGDGGSRYSPSFQGQVTISADKSISTAYLQWSSLKASDTAMYYCARGGNYISFPMYYWGQGTLVTVSSASTKGPSVFPLAPSSKSTSGGTAALGCLVKDYFPEPVTVSWNSGALTSGVHTFPAVLQSSGLYSLSSVVTVPSSSLGTQTYICNVNHKPSNTKVDKRVEPKSCDKTHTCPPCPAPELVGGPSVFLLPPKPKDTLMISRTPEVTCVVVDVSHEDPEVKFNWYVDGVEVHNAKTKPPEEQYNSTLRVVSVLTVLHQDWLNGKEYKCKVSNKALPAPIEKTISKAKGQPREPQVYTLPPSREEMTKNQVSLTCLVKGFYPSDIAVEWESNGQPENNYKTTPLVLDSDGSFFLYSKLTVDKSRWQQGNVFSCSVMHEALHNHYTQKSLSLSPGK
light: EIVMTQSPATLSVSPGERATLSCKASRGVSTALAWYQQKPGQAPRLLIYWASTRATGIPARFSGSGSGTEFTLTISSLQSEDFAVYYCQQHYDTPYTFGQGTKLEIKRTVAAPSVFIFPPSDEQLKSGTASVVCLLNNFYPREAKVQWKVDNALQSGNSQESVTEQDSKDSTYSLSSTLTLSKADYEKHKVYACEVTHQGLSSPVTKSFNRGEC
modifications: may carry MC-Val-Cit-PAB-MMAE on an inter-chain disulfide cysteine; positions not given; MC-Val-Cit-PAB-MMAE drug-linker on cysteines of partially reduced inter-chain disulfide bonds; main peaks DAR2, DAR4, DAR6, minor DAR0 and DAR8; positions not given
notes: a mixture of DAR species; also called ADC made of 27B4H4L3 antibody
In the case of B2, the MFI in assay [1] was found to be 290000 MFI; in assay [2], 65300 MFI; in assay [3] it was 126000 MFI.

(Values after patent publication US20230414781A1 (BLISS BIOPHARMACEUTICAL HANGZHOU, published 2023).)
